Experimental findings from patent publication US20240132624A1 (Ablynx, published 2024) are described below.

Substitutions are numbered along the chain they refer to.

To fix the notation:
B1: T0263018B11 T96I (VHH, name in Kabat numbering)
VHH: EVQLVESGGGVVQPGGSLRLSCAASGFTFSSYAMYWVRQAPGKGLEWVSAISSGGGSTDYADSVKGRFTISRDNSKNTLYLQMNSLRPEDTALYYCAADILYTSLTWYSYWGQGTLVTVSS
notes: FLAG3-His6 tagged
B2: T0263018B11 Y32L (VHH, name in Kabat numbering)
VHH: B1 VHH with Y32L, I100T
notes: FLAG3-His6 tagged
B3: T0263018B11 T96Q (VHH, name in Kabat numbering)
VHH: B1 VHH with I100Q
notes: FLAG3-His6 tagged
B4: T0263018B11 W100cG (VHH, name in Kabat numbering)
VHH: B1 VHH with I100T, W107G
notes: FLAG3-His6 tagged
B5: T0263018B11 T100bE (VHH, name in Kabat numbering)
VHH: B1 VHH with I100T, T106E
notes: FLAG3-His6 tagged
B6: T0263018B11 T100bL (VHH, name in Kabat numbering)
VHH: B1 VHH with I100T, T106L
notes: FLAG3-His6 tagged
B7: T0263018B11 Y32F (VHH, name in Kabat numbering)
VHH: B1 VHH with Y32F, I100T
notes: FLAG3-His6 tagged
B8: T0263018B11 W100cA (VHH, name in Kabat numbering)
VHH: B1 VHH with I100T, W107A
notes: FLAG3-His6 tagged
B9: T0263018B11 T96M (VHH, name in Kabat numbering)
VHH: B1 VHH with I100M
notes: FLAG3-His6 tagged
B10: T0263018B11 T96Y (VHH, name in Kabat numbering)
VHH: B1 VHH with I100Y
notes: FLAG3-His6 tagged
B11: T0263018B11 W100cD (VHH, name in Kabat numbering)
VHH: B1 VHH with I100T, W107D
notes: FLAG3-His6 tagged
B12: T0263018B11 W100cV (VHH, name in Kabat numbering)
VHH: B1 VHH with I100T, W107V
notes: FLAG3-His6 tagged
B13: T0263018B11 Y32Q (VHH, name in Kabat numbering)
VHH: B1 VHH with Y32Q, I100T
notes: FLAG3-His6 tagged
B14: T0263018B11 T96V (VHH, name in Kabat numbering)
VHH: B1 VHH with I100V
notes: FLAG3-His6 tagged
B15: T0263018B11 W100cQ (VHH, name in Kabat numbering)
VHH: B1 VHH with I100T, W107Q
notes: FLAG3-His6 tagged
B16: T0263018B11 W100cL (VHH, name in Kabat numbering)
VHH: B1 VHH with I100T, W107L
notes: FLAG3-His6 tagged
B17: T0263018B11 W100cF (VHH, name in Kabat numbering)
VHH: B1 VHH with I100T, W107F
notes: FLAG3-His6 tagged
B18: T0263018B11 W100cY (VHH, name in Kabat numbering)
VHH: B1 VHH with I100T, W107Y
notes: FLAG3-His6 tagged
B19: T0263018B11 T96S (VHH, name in Kabat numbering)
VHH: B1 VHH with I100S
notes: FLAG3-His6 tagged

T2 sequence (Q8SPV9 24-297 limits assumed, chain 1 of 2): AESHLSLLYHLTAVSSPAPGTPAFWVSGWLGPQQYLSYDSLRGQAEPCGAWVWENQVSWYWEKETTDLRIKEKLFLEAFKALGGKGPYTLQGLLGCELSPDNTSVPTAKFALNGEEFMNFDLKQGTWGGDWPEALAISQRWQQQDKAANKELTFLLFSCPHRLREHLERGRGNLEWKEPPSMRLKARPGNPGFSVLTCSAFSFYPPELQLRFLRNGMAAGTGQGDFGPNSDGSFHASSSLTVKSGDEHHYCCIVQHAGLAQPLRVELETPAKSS
T2 sequence (Q8SPW0 21-119 limits assumed, chain 2 of 2): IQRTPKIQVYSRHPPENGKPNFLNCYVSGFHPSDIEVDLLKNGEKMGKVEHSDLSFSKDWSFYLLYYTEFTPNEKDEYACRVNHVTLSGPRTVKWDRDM
T1 sequence (chain, as listed by the source limits assumed, chain 1 of 2): as the sequence (Q8SPV9 24-297 limits assumed, chain 1 of 2) above, with D39N, Q44E, S99G, G189S, N190S, M217L, T269S counted along it
T1 sequence (P61769 21-119 limits assumed, chain 2 of 2): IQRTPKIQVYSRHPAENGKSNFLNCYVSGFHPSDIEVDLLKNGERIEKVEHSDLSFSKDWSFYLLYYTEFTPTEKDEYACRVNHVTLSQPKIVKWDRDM

The first test addresses T1, human FcRn/b2M (human, UniProt P61769 21-119, biotinylated).
T1 construct: bought recombinant biotinylated protein (ACRO FCM-H82W4 or Immunitrack ITF01); also called hFcRn; hFcRn/hb2M
In words: SPR off-rate; pH 7.4 vs pH 6.0.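 Note: surface plasmon resonance with diluted periplasmic extracts flowed over ligand surfaces, 120 s association and 600–3600 s dissociation at 25 °C, running buffer containing 150 mM NaCl.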
Method: (§1) All kinetic measurements have been performed on ProteOn XPR36 (BioRad Laboratories, Inc.), MASS-2 (Sierra sensors, Gmbh) or SPR-32 (Bruker Corporation). […] The phytip purified periplasmic extracts were diluted 1:10 in running buffer (CPA+150 mM NaCl+0.005% Tw20 at pH 5.5, pH 6.0 or pH 7.4) and injected over the ligand surfaces (association: 120 s at 45 μL/min; dissociation: 600s-3600 s at 45 μL/min). Experiments were carried out at 25° C.
Take B1: the “kd ratio pH 7.4/6.0” value was 52.

For B2, the “kd ratio pH 7.4/6.0” value stood at 49.

Regarding B3, the “kd ratio pH 7.4/6.0” value was determined as 35.

In the case of B4, the “kd ratio pH 7.4/6.0” value turned out to be 46.

With B5, the “kd ratio pH 7.4/6.0” value was 45.

For the molecule B6, the “kd ratio pH 7.4/6.0” value worked out at 38.

For B7, the “kd ratio pH 7.4/6.0” value worked out at 39.

B8: the “kd ratio pH 7.4/6.0” value came to 50.

Regarding B9, the “kd ratio pH 7.4/6.0” value was 42.

In the case of B10, the “kd ratio pH 7.4/6.0” value amounted to 45.

Turning to B11, the “kd ratio pH 7.4/6.0” value is 19.

With B12, the “kd ratio pH 7.4/6.0” value was determined as 61.

B13: the “kd ratio pH 7.4/6.0” value is 60.

For B14, the “kd ratio pH 7.4/6.0” value stood at 45.

On to B15, for which the “kd ratio pH 7.4/6.0” value was found to be 56.

In the case of B16, the “kd ratio pH 7.4/6.0” value is 72.

As to B17, the “kd ratio pH 7.4/6.0” value came to 44.

Regarding B18, the “kd ratio pH 7.4/6.0” value is 43.

Take B19: the “kd ratio pH 7.4/6.0” value was found to be 33.

The next test has as its target T2, cyno FcRn/b2M (cyno, UniProt Q8SPV9 24-297; Q8SPW0 21-119, biotinylated).
T2 construct: bought recombinant biotinylated protein (Immunitrack ITF05 or ACRO FCM-C82W5); also called cFcRn; cFcRn/cb2M
In words: SPR off-rate; pH 7.4 vs pH 6.0.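 Note: surface plasmon resonance with diluted periplasmic extracts flowed over ligand surfaces, 120 s association and 600–3600 s dissociation at 25 °C, running buffer containing 150 mM NaCl.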
Method: as §1
As for B1, the “kd ratio pH 7.4/6.0” value came to 57.

On to B2, for which the “kd ratio pH 7.4/6.0” value was 46.

Consider B3, for which the “kd ratio pH 7.4/6.0” value is 46.

As to B4, the “kd ratio pH 7.4/6.0” value was determined as 75.

As for B5, the “kd ratio pH 7.4/6.0” value was determined as 51.

Turning to B6, the “kd ratio pH 7.4/6.0” value was 56.

For the molecule B7, the “kd ratio pH 7.4/6.0” value was 46.

With B8, the “kd ratio pH 7.4/6.0” value turned out to be 81.

As for B9, the “kd ratio pH 7.4/6.0” value was found to be 49.

For the molecule B10, the “kd ratio pH 7.4/6.0” value was 50.

On to B11, for which the “kd ratio pH 7.4/6.0” value was determined as 45.

With B12, the “kd ratio pH 7.4/6.0” value was found to be 76.

On to B13, for which the “kd ratio pH 7.4/6.0” value was 75.

Turning to B14, the “kd ratio pH 7.4/6.0” value stood at 40.

Turning to B15, the “kd ratio pH 7.4/6.0” value is 85.

As to B16, the “kd ratio pH 7.4/6.0” value was determined as 84.

Consider B17, for which the “kd ratio pH 7.4/6.0” value is 63.

As to B18, the “kd ratio pH 7.4/6.0” value was determined as 50.

For the molecule B19, the “kd ratio pH 7.4/6.0” value amounted to 44.

The next test addresses T1, human FcRn/b2M. In words: SPR pH 6.0.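 Note: surface plasmon resonance kinetics at 25 °C, diluted periplasmic extracts injected over immobilized ligand surfaces, 120 s association then 600–3600 s dissociation, running buffer containing 150 mM NaCl.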
Method: as §1
The molecule B1 had a koff of 0.00069 s⁻¹.

The molecule B2 displayed a koff of 0.013 s⁻¹.

B3: the koff was found to be 0.0026 s⁻¹.

B4 yielded a koff of 0.0092 s⁻¹. Against the preceding molecule, the koff is about 3.5-fold higher.

For B5, the koff worked out at 0.00071 s⁻¹.

Take B6: the koff came out at 0.0037 s⁻¹.

B7 came in with a koff of 0.00066 s⁻¹.

Regarding B8, the koff came out at 0.01 s⁻¹.

B9 registered a koff of 0.0016 s⁻¹.

B10: the koff came out at 0.00054 s⁻¹.

Consider B11, for which the koff stood at 0.0073 s⁻¹.

On to B12, for which the koff was 0.0082 s⁻¹.

Turning to B13, the koff was 0.0023 s⁻¹. This koff is about 3.6-fold lower than that of the molecule before.

Molecule B14 yielded a dissociation rate constant (koff) of 0.00047 s⁻¹.

In turn, B15 came in with a koff of 0.009 s⁻¹.

The molecule B16 displayed a koff of 0.0064 s⁻¹.

In turn, B17 yielded a koff of 0.0036 s⁻¹.

Regarding B18, the koff amounted to 0.0021 s⁻¹. This koff is about 1.7-fold lower than that of the molecule before.

Consider B19, for which the koff came out at 0.0016 s⁻¹. The koff values of the last two molecules are within 1.5-fold of each other.

For a further test, the target named is T2, cyno FcRn/b2M. In words: SPR pH 6.0.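 Note: surface plasmon resonance kinetics at 25 °C, diluted periplasmic extracts injected over immobilized ligand surfaces, 120 s association then 600–3600 s dissociation, running buffer containing 150 mM NaCl.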
Method: as §1
For B1, the koff is 0.00042 s⁻¹.

As for B2, the koff was found to be 0.0084 s⁻¹.

In turn, B3 came in with a koff of 0.002 s⁻¹.

The molecule B4 came in with a koff of 0.0051 s⁻¹.

B5 yielded a koff of 0.00049 s⁻¹.

As to B6, the koff worked out at 0.0032 s⁻¹.

As to B7, the koff worked out at 0.00042 s⁻¹. Compared with the last molecule, the koff is about 7.6-fold lower.

The molecule B8 came in with a dissociation rate constant (koff) of 0.0062 s⁻¹. Compared with the last molecule, the koff is about 15-fold higher.

Turning to B9, the koff is 0.00097 s⁻¹.

For B10, the koff was 0.00035 s⁻¹.

B11 gave a koff of 0.003 s⁻¹. Against the preceding molecule, the koff is about 8.6-fold higher.

Consider B12, for which the koff amounted to 0.0024 s⁻¹.

B13 displayed an off-rate (koff) of 0.0013 s⁻¹.

In turn, B14 yielded a koff of 0.00036 s⁻¹.

For the molecule B15, the koff worked out at 0.0059 s⁻¹.

In the case of B16, the koff amounted to 0.0051 s⁻¹. The koff values of the last two molecules are within 1.5-fold of each other.

The molecule B17 gave a koff of 0.0024 s⁻¹.

Take B18: the koff stood at 0.0015 s⁻¹.

For the molecule B19, the koff was found to be 0.0012 s⁻¹.

Another test concerns the target T1, human FcRn/b2M. In words: SPR pH 7.4.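 Note: surface plasmon resonance kinetics, periplasmic extracts diluted 1:10 flowed over immobilized target at 25 °C, 120 s association then 600–3600 s dissociation, buffer with 150 mM NaCl.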
Method: as §1
In the case of B1, the koff worked out at 0.036 s⁻¹.

Consider B2, for which the koff stood at 0.61 s⁻¹.

The molecule B3 yielded a koff of 0.091 s⁻¹.

Take B4: the koff turned out to be 0.42 s⁻¹.

For the molecule B5, the koff came to 0.032 s⁻¹.

For the molecule B6, the koff stood at 0.14 s⁻¹.

As to B7, the off-rate (koff) is 0.026 s⁻¹.

B8: the koff was determined as 0.5 s⁻¹. Against the preceding molecule, the koff is about 19-fold higher.

The molecule B9 had a koff of 0.067 s⁻¹. This koff is about 7.5-fold lower than that of the molecule before.

For the molecule B10, the off-rate constant (koff) came out at 0.024 s⁻¹.

In turn, B11 had a koff of 0.14 s⁻¹.

Molecule B12 returned a koff of 0.5 s⁻¹.

B13: the koff is 0.14 s⁻¹.

As for B14, the koff amounted to 0.021 s⁻¹.

Consider B15, for which the koff was 0.5 s⁻¹. This koff lies about 24-fold higher than the previous one.

As for B16, the koff turned out to be 0.46 s⁻¹.

In turn, B17 showed a koff of 0.16 s⁻¹.

The molecule B18 yielded a koff of 0.09 s⁻¹.

The molecule B19 gave a koff of 0.053 s⁻¹.

Another test has as its target T2, cyno FcRn/b2M. In words: SPR pH 7.4.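 Note: surface plasmon resonance kinetics, periplasmic extracts diluted 1:10 flowed over immobilized target at 25 °C, 120 s association then 600–3600 s dissociation, buffer with 150 mM NaCl.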
Method: as §1
Molecule B1 came in with a koff of 0.024 s⁻¹.

As for B2, the koff worked out at 0.39 s⁻¹.

For the molecule B3, the koff turned out to be 0.092 s⁻¹. Compared with the last molecule, the koff is about 4.2-fold lower.

Consider B4, for which the koff worked out at 0.38 s⁻¹.

In turn, B5 came in with a koff of 0.025 s⁻¹.

Regarding B6, the koff is 0.18 s⁻¹.

B7 gave a koff of 0.019 s⁻¹.

For the molecule B8, the koff was 0.5 s⁻¹.

The molecule B9 registered a koff of 0.047 s⁻¹.

On to B10, for which the koff worked out at 0.017 s⁻¹.

For the molecule B11, the koff came out at 0.13 s⁻¹.

In turn, B12 registered a koff of 0.18 s⁻¹.

The molecule B13 gave an off-rate constant (koff) of 0.099 s⁻¹.

As to B14, the koff stood at 0.014 s⁻¹.

B15: the koff amounted to 0.5 s⁻¹. This koff lies about 36-fold higher than the previous one.

As for B16, the koff was 0.43 s⁻¹. This koff and that of the molecule before are within 1.5-fold of each other.

B17 had a koff of 0.15 s⁻¹.

In turn, B18 had a koff of 0.075 s⁻¹. This koff is about 2-fold lower than that of the molecule before.

As for B19, the koff was 0.053 s⁻¹.

The koff is a measure of how fast the partners let go of each other.
